± gives the uncertainty stated by the source.
Test: self-splicing fitness, log relative to wild type (ln ratio); higher = more splicing; Tetrahymena group I intron in knt gene, E. coli kanamycin selection, DiMSum; sequences stand for … in CUCUCU…GGAGGGAAAAGUUAUCAGGCAUGCACCUGGUAGCUAGUCUUUAAACCAAUAGAUUGCAUCGGUUUAAAAGGCAAGACCGUCAAAUUGCGGGAAAGGGGUCAACAGCCGUUCAGUACCAAGUCUCAGGGGAAACUUUGAGAUGGCCUUGCAAAGGGUAUGGUAAUAAGCUGACGGACAUGGUCCUAACCACGCAGCCAAGUCCUAAGUCAACAGAUCUUCUGUUGAUAUGGAUGCAGUUCACAGACUAAAUGUCGGUCGGGGAAGAUGUAUUCUUCUCAUAAGAUAUAGUCGGACCUCUCCUUAAUGGGAGCUAGCGGAUGAAGUGAUGCAACACUGGAGCCGCUGGGAACUAAUUUGUAUGCGAAAGUAUAUUGAUUAGUUUUGGAGUACUCGUGGUCG
Summary of the method: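 Library with all eight P1ex-region intron nucleotides randomised, intron inside the knt kanamycin-resistance gene on pET-22b(+), in E. coli BL21(DE3). Cells grew overnight at 37°C or 30°C on LB agar with or without 25 μg/mL kanamycin (plus 100 μg/mL carbenicillin, 50 μM IPTG, 0.2% rhamnose), in six replicate transformations. Pooled colonies were amplicon-sequenced on Illumina HiSeq 2500. DiMSum fitness is the error-weighted combination of wild-type-normalised replicate fold changes, kanamycin versus none.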

Sequence | self-splicing fitness (ln) (30 °C) | self-splicing fitness (ln) (37 °C)
CCGCAGCAAUAUUACGCCUC | -2.79 ± 0.12 | -2.04 ± 0.14
AAGCAGCAAUAUUACGUCUA | -1 ± 0.053 | -1.53 ± 0.062
GGGUAGCAAUAUUACGUAAC | -1.07 ± 0.15 | -0.795 ± 0.22
AUCAAGCAAUAUUACGGGUA | -2.04 ± 0.11 | -1.16 ± 0.091
UAUGAGCAAUAUUACGCGCA | -1.68 ± 0.12 | -0.965 ± 0.15
CGGCAGCAAUAUUACGGCAU | -0.976 ± 0.088 | -0.0577 ± 0.1
UUCUAGCAAUAUUACGUCCU | -1.87 ± 0.38 | -2.91 ± 0.36
UUGAAGCAAUAUUACGUCAG | 0.252 ± 0.076 | 0.934 ± 0.11
CCCUAGCAAUAUUACGGUUA | -4.05 ± 0.35 | -2.71 ± 0.21
UUCCAGCAAUAUUACGGCGC | -2.61 ± 0.14 | -0.177 ± 0.12
CUAGAGCAAUAUUACGCAAU | -3.77 ± 0.22 | -3.08 ± 0.34
ACUAAGCAAUAUUACGCUAG | -2.68 ± 0.14 | -1.82 ± 0.17
CGCUAGCAAUAUUACGGAUA | -2.99 ± 0.17 | -2.14 ± 0.22
GGAUAGCAAUAUUACGUCUG | -0.225 ± 0.061 | -0.0327 ± 0.088
CCCCAGCAAUAUUACGUGUG | -2.66 ± 0.084 | -2.5 ± 0.11
UCCGAGCAAUAUUACGACGU | -1.05 ± 0.07 | 0.0752 ± 0.11
ACGAAGCAAUAUUACGCAAA | -2.64 ± 0.15 | -0.916 ± 0.13
CAGCAGCAAUAUUACGCAAC | -3.45 ± 0.28 | -1.37 ± 0.25
AUGUAGCAAUAUUACGGGAG | -3.16 ± 0.29 | -2.64 ± 0.44

Sequence | self-splicing fitness (ln) (30 °C) | self-splicing fitness (ln) (37 °C)
GGAGAGCAAUAUUACGCGAU | -2.76 ± 0.28 | -1.64 ± 0.37
ACUGAGCAAUAUUACGCAGU | -2.36 ± 0.24 | -1.35 ± 0.2
GGCUAGCAAUAUUACGUUAG | -3.51 ± 0.32 | -0.919 ± 0.24
CAGGAGCAAUAUUACGGUUA | -3.1 ± 0.37 | -3.41 ± 0.4
GUUAAGCAAUAUUACGGUUA | -1.33 ± 0.096 | -0.554 ± 0.096
CGAGAGCAAUAUUACGAUCG | -2.87 ± 0.43 | 
CCAGAGCAAUAUUACGUGUG | -1.69 ± 0.091 | -1.54 ± 0.097
CUAAAGCAAUAUUACGGGUG | 0.107 ± 0.039 | 0.493 ± 0.064
GUGUAGCAAUAUUACGGUCU | -1.6 ± 0.2 | 0.619 ± 0.2
GAUGAGCAAUAUUACGACUU | -0.252 ± 0.071 | 0.118 ± 0.089
AUUUAGCAAUAUUACGCAAU | -2.53 ± 0.2 | -1.86 ± 0.18
AGAUAGCAAUAUUACGUGAC | -3.44 ± 0.23 | -2.71 ± 0.48
AAGUAGCAAUAUUACGGAUA | -2.1 ± 0.17 | -1.66 ± 0.16
UUCUAGCAAUAUUACGCUAG | -3.41 ± 0.23 | -2.42 ± 0.41
AACGAGCAAUAUUACGGGAC | -3.37 ± 0.22 | -3.61 ± 0.46
UUAAAGCAAUAUUACGCUCA | 0.0308 ± 0.097 | 0.489 ± 0.14
CCUAAGCAAUAUUACGGGCU | -3.03 ± 0.33 | -2.46 ± 0.33
GAUUAGCAAUAUUACGGCCU | -1.39 ± 0.12 | -0.323 ± 0.098
GUAAAGCAAUAUUACGGUAC | -1.61 ± 0.12 | -1.26 ± 0.18

Reference: the supplement of paper PMC7877785
